% Binding and Kd data for eleven molecules are collected here from patent US20250186541A1, “DLL3 TARGETING PEPTIDES AND CONSTRUCTS THEREOF” (MARIANA ONCOLOGY INC., priority 2023, published 2025).

In experiment [1] the target is DLL3 on SHP-77 cells (human) (UniProt Q9NYJ7). As to the kind of experiment: 177Lu-labelled peptide on SHP-77 cells, 1 h 37 C, gamma count of bound fraction.
The target of experiment [2] is T1, Biotinylated human DLL3 (human, UniProt Q9NYJ7 27-492, biotinylated (site not stated)).
T1 construct: also called Delta-like ligand 3; Delta Like Canonical Notch Ligand 3
T1 sequence (looked up): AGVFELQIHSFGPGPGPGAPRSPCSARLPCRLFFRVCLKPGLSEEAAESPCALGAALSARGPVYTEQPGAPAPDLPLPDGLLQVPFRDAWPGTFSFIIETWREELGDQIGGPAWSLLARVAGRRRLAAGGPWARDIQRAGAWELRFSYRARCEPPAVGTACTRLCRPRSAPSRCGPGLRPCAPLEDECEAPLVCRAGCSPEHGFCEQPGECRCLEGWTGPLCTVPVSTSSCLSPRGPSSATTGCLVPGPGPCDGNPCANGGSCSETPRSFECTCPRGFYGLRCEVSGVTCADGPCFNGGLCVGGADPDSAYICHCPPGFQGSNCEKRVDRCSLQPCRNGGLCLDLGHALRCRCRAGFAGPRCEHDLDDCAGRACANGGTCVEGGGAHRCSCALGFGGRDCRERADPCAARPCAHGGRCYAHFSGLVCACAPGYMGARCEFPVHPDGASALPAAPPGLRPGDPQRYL
Put plainly: SPR, biotin-hDLL3 on SA chip; Cpd 59, a separate compound. In general terms: Surface plasmon resonance follows binding to a sensor surface in real time, without labels.

In experiment [3] the target is Biotinylated human DLL3 (human) (UniProt Q9NYJ7). Put plainly: SPR, biotin-hDLL3 on SA chip.
Experiment [4] has as its target T1, Biotinylated human DLL3. Put plainly: SPR, biotin-hDLL3 on SA chip; Cpd 58, a separate compound.
The target in experiment [5] is T1, Biotinylated human DLL3. As to the kind of experiment: SPR, biotin-hDLL3 on SA chip; Cpd 56, a separate compound.

Numbered stars: 1 amine (or outer) side, 2 acyl side, 3 side chain; on linkers, the order of the positions; unused ones are H or OH. Bridge positions count the residues as written; N and C are the ends. Square brackets hold non-standard residues; d marks the D form. * marks the point of attachment. Ala(piperidin-4-yl) = O=C([C@H](CC1CCN([*:3])CC1)N[*:1])[*:2]; DOTA = O=C(O)CN1CCN(CC(=O)O)CCN(CC(=O)*)CCN(CC(=O)O)CC1; Phe(4-CF3) = N[C@@H](Cc1ccc(C(F)(F)F)cc1)C(=O)O; Trp(5-F) = N[C@@H](Cc1c[nH]c2ccc(F)cc12)C(=O)O; Trp(7-Me) = Cc1cccc2c(C[C@H](N)C(=O)O)c[nH]c12; 1Nal = N[C@@H](Cc1cccc2ccccc12)C(=O)O; 2Nal = N[C@@H](Cc1ccc2ccccc2c1)C(=O)O; NMeChg = CN[C@H](C(=O)O)C1CCCCC1; tBuAla = CC(C)(C)C[C@H](N)C(=O)O; αMeD = C[C@](N)(CC(=O)O)C(=O)O; AllylGly = C=CC[C@H](N)C(=O)O; PAF(DOTA) = not defined here; αMeP = C[C@@]1(C(=O)O)CCCN1; NMeS = CN[C@@H](CO)C(=O)O; PAF = not defined here; Ahx = NCCCCCC(=O)O

Chain of DLL3 on SHP-77 cells (human) (Q9NYJ7 27-618 limits assumed): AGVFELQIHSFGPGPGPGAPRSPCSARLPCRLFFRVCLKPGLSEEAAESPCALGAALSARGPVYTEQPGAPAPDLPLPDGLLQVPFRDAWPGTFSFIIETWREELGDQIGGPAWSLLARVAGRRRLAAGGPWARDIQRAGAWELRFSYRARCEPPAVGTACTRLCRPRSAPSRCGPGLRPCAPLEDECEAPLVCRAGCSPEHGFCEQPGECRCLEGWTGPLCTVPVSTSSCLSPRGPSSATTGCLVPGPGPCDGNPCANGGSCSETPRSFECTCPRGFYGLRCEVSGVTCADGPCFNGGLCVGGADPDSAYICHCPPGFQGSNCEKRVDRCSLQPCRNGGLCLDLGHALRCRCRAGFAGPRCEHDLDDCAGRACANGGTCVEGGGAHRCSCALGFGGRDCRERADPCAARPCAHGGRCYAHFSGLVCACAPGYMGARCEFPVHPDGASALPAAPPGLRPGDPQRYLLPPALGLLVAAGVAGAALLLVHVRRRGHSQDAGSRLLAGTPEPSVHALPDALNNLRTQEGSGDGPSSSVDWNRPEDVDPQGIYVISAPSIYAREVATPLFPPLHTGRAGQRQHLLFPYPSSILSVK

B1: [177Lu]Lu-Cpd #166 (peptide)
peptide: Ac-[dA]SDC[1Nal][tBuAla]A[2Nal]DC[αMeP]FD[dK](DOTA)-NH2
modifications: disulfide 4-10; also: 177Lu chelated
Molecule B1 came in with a % Binding in experiment [1] of 7%.

B2: Cpd #59 (peptide)
peptide: Ac-MSDC[Phe(4-CF3)]LQWNCPFD[dK](DOTA)-NH2
modifications: disulfide 4-10
SMILES: CSCC[C@H](NC(C)=O)C(=O)N[C@@H](CO)C(=O)N[C@@H](CC(=O)O)C(=O)N[C@H]1CSSC[C@@H](C(=O)N2CCC[C@H]2C(=O)N[C@@H](Cc2ccccc2)C(=O)N[C@@H](CC(=O)O)C(=O)N[C@H](CCCCNC(=O)CN2CCN(CC(=O)O)CCN(CC(=O)O)CCN(CC(=O)O)CC2)C(N)=O)NC(=O)[C@H](CC(N)=O)NC(=O)[C@H](Cc2c[nH]c3ccccc23)NC(=O)[C@H](CCC(N)=O)NC(=O)[C@H](CC(C)C)NC(=O)[C@H](Cc2ccc(C(F)(F)F)cc2)NC1=O
As usually defined, the Kd is a measure of binding affinity in units of concentration. Turning to B2, in the experiment with Biotinylated human DLL3 [2], binding was put at a Kd of 149 nM. That is a sub-micromolar value.

B3: [177Lu]Lu-Cpd #192 (peptide)
peptide: Ac-[Ala(piperidin-4-yl)][NMeS]NC[1Nal][tBuAla][PAF(DOTA)][2Nal]DC[αMeP]FD-NH2
modifications: disulfide 4-10; reading uncertain; also: 177Lu chelated, printed as Ac-[3-(4-piperidinyl)-Ala]-(NMe-Ser)-N-C(3)-(1Nal)-(t-Bu-Ala)-[PAF(DOTA)]-(2Nal)-D-C(3)-(aMe-P)-F-D-CONH2; (3)=disulfide; 177Lu chelated
For B3, the % Binding in experiment [1] came out at 9%.

B4: [177Lu]Lu-Cpd #176 (peptide)
peptide: {DOTA}-[Ahx]SDC[1Nal][tBuAla][Ala(piperidin-4-yl)][2Nal]NC[αMeP]FD-NH2
modifications: disulfide 4-10; also: 177Lu chelated
Regarding B4, the % Binding in experiment [1] stood at 6%.

B5: Cpd #188 (peptide)
peptide: Ac-[Ala(piperidin-4-yl)]SDC[1Nal][NMeChg][PAF](DOTA)[Trp(7-Me)]NC[αMeP]FD-NH2
modifications: disulfide 4-10; reading uncertain; also: printed as Ac-[3-(4-piperidinyl)-Ala]-S-D-C(3)-(1Nal)-(NMe-Chg)-[PAF(DOTA)]-(7Me-W)-N-C(3)-(aMe-P)-F-D-CONH2; (3)=disulfide
In the case of B5, the Kd in experiment [3] is over 30 nM.

B6: Cpd #58 (peptide)
peptide: Ac-MSDC[Trp(5-F)]LQWNCPFD[dK](DOTA)-NH2
modifications: disulfide 4-10
Molecule B6 gave a Kd with Biotinylated human DLL3 [4] of 42 nM.

B7: [177Lu]Lu-Cpd #191 (peptide)
peptide: Ac-[Ala(piperidin-4-yl)][NMeS]DC[1Nal][tBuAla][PAF(DOTA)][2Nal]NC[αMeP]FD-NH2
modifications: disulfide 4-10; reading uncertain; also: 177Lu chelated, printed as Ac-[3-(4-piperidinyl)-Ala]-(NMe-Ser)-D-C(3)-(1Nal)-(t-Bu-Ala)-[PAF(DOTA)]-(2Nal)-N-C(3)-(aMe-P)-F-D-CONH2; (3)=disulfide; 177Lu chelated
Turning to B7, in experiment [1], the % Binding stood at 10%.

B8: [177Lu]Lu-Cpd #168 (peptide)
peptide: Ac-[dA]S[αMeD]C[1Nal][tBuAla]Q[2Nal]NC[αMeP]FD[dK](DOTA)-NH2
modifications: disulfide 4-10; also: 177Lu chelated
Consider B8, for which the % Binding in experiment [1] is 8%.

B9: [177Lu]Lu-Cpd #195 (peptide)
peptide: Ac-[dA][NMeS]D[AllylGly][1Nal][tBuAla][PAF(DOTA)][2Nal]N[AllylGly][αMeP]FD-NH2
modifications: staple 4-10; reading uncertain; also: 177Lu chelated
Molecule B9 showed a % Binding in experiment [1] of 7%.

B10: Cpd #56 (peptide)
peptide: Ac-MSDC[1Nal]LQWNCPFD[dK](DOTA)-NH2
modifications: disulfide 4-10
SMILES: CSCC[C@H](NC(C)=O)C(=O)N[C@@H](CO)C(=O)N[C@@H](CC(=O)O)C(=O)N[C@H]1CSSC[C@@H](C(=O)N2CCC[C@H]2C(=O)N[C@@H](Cc2ccccc2)C(=O)N[C@@H](CC(=O)O)C(=O)N[C@H](CCCCNC(=O)CN2CCN(CC(=O)O)CCN(CC(=O)O)CCN(CC(=O)O)CC2)C(N)=O)NC(=O)[C@H](CC(N)=O)NC(=O)[C@H](Cc2c[nH]c3ccccc23)NC(=O)[C@H](CCC(N)=O)NC(=O)[C@H](CC(C)C)NC(=O)[C@H](Cc2cccc3ccccc23)NC1=O
In the experiment with Biotinylated human DLL3 [5], B10 gave a Kd of 1.13 nM.

B11: [177Lu]Lu-Cpd #200 (peptide)
peptide: Ac-[Ala(piperidin-4-yl)]SD[AllylGly][1Nal][tBuAla][PAF(DOTA)][2Nal]N[AllylGly][αMeP]FD-NH2
modifications: staple 4-10; reading uncertain; also: 177Lu chelated
Take B11: in experiment [1], the % Binding is 6%.
